Results on 1 molecule are retold here after paper PMC2878922 (2011).

Test [1] addresses T1, CD47 ECD (Mus musculus, UniProt Q61735).
T1 chain: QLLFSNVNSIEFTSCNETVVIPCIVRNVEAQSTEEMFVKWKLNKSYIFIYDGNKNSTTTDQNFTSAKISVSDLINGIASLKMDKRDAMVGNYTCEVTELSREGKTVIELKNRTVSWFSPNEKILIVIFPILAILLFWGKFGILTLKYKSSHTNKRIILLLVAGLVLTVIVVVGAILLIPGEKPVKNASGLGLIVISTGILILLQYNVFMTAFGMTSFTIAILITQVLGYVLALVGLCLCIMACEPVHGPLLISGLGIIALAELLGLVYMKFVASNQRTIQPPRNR
Nature of the test: flow cytometry saturation binding on CD47-coated beads. A general note: Flow cytometry measures light scatter and fluorescence of single cells or particles in a stream.

In test [2] the target is CD47 ECD (Homo sapiens, UniProt Q08722). Described as above.
Sequence of CD47 ECD (Homo sapiens, UniProt Q08722) (Q08722 19-323): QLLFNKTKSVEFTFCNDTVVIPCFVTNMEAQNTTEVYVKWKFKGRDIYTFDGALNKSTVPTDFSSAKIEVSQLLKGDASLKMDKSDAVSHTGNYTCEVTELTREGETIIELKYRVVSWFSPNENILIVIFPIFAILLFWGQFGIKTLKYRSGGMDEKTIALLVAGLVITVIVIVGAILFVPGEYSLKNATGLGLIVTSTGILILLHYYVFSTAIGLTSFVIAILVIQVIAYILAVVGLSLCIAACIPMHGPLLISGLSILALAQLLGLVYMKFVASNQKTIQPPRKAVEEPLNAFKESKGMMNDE

B1: SIRPα (variant 129_IgV, GST fusion) ECD (protein)
chain: KELKVTQPEKSVSVAAGDSTVLNCTLTSLLPVGPIRWYRGVGPSRLLIYSFAGEYVPRIRNVSDTTKRNNMDFSIRISNVTPADAGIYYCVKFQKGSSEPDTEIQSGGGTEVYVLAKPSPPEVSGPADRGIPDQKVNFTCKSHGFSPRNITLKWFKDGQELHPLETTVNPSGKNVSYNISSTVRVVLNSMDVNSKVICEVAHITLDRSPLRGIANLSNFIRVSPTVKVTQQSPTSMNQVNLTCRAERFYPEDLQLIWLENGNVSRNDTPKNLTKNTDGTYNYTSLFLVNSSAHREDVVFTCQVKHDQQPAITRNHTVLGFAHSSDQGSMQTFPDNNATHNWN
With B1, the Kd with CD47 ECD [1] and in the test with CD47 ECD [2] was 220 nM in each case.
